This passage reports protein stability index results from the supplement of paper PMC10567573.

To fix the notation:
B1: MLL5 (parent)
chain: HDDGYMICCDKCSVWQHIDCMGID
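Note: lentivirally expressed fusions sorted by FACS into six bins by GFP to DsRed ratio, PSI derived from sequencing read proportions per bin multiplied by bin number.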

In this data set the parent is B1. Nature of the data set: protein stability index of a GFP-peptide fusion (GPS, HEK-293T) (PSI 1-6); higher = more stable. The note with it: c terminus: a fixed tail appended.
In the case of HDDGYMICCDKCSVWQHWDCMGID, the protein stability index turned out to be 2.38.

For HDDGYMICCDKCSVWQHQDCMGID, the protein stability index came out at 3.42.

As to HDDGYMICCDKCSVWQHNDCMGID, the protein stability index was determined as 2.52.

For HDDGYMICCDKCSVWQHEDCMGID, the protein stability index amounted to 3.5.

Take HDDGYMICCDKCSVWQHSDCMGID: the protein stability index amounted to 3.06.

Consider HDDGYMICCDKCSVWQHKDCMGID, for which the protein stability index stood at 3.36.

In the case of HDDGYMICCDKCSVWQHDDCMGID, the protein stability index was 3.71.

HDDGYMICCDKCSVWQHRDCMGID: the protein stability index was 3.32.

As for HDDGYMICCDKCSVWQHCDCMGID, the protein stability index was 3.93.

Regarding HDDGYMICCDKCSVWQHFDCMGID, the protein stability index stood at 2.35.

HDDGYMICCDKCSVWQHVDCMGID: the protein stability index amounted to 1.99.

Regarding HDDGYMICCDKCSVWQHTDCMGID, the protein stability index is 2.44.

With HDDGYMICCDKCSVWQHYDCMGID, the protein stability index was 2.6.

As to HDDGYMICCDKCSVWQHHDCMGID, the protein stability index turned out to be 3.6.

Consider HDDGYMICCDKCSVWQHMDCMGID, for which the protein stability index stood at 3.14.

Regarding HDDGYMICCDKCSVWQHGDCMGID, the protein stability index came to 3.5.

For HDDGYMICCDKCSVWQHLDCMGID, the protein stability index is 2.28.

HDDGYMICCDKCSVWQHADCMGID: the protein stability index was 2.9.

As to HDDGYMICCDKCSVWQHPDCMGID, the protein stability index is 2.94.

HDDGYMICCDKCSVWQHICCMGID: the protein stability index was 2.94.

Regarding HDDGYMICCDKCSVWQHIMCMGID, the protein stability index was 2.

Turning to HDDGYMICCDKCSVWQHISCMGID, the protein stability index stood at 1.78.

As to HDDGYMICCDKCSVWQHIYCMGID, the protein stability index was determined as 1.72.

With HDDGYMICCDKCSVWQHIVCMGID, the protein stability index amounted to 3.42.

Consider HDDGYMICCDKCSVWQHIFCMGID, for which the protein stability index was 1.74.

For HDDGYMICCDKCSVWQHIKCMGID, the protein stability index worked out at 2.52.

On to HDDGYMICCDKCSVWQHIQCMGID, for which the protein stability index worked out at 2.62.

Regarding HDDGYMICCDKCSVWQHIWCMGID, the protein stability index was determined as 1.98.

Take HDDGYMICCDKCSVWQHIECMGID: the protein stability index turned out to be 2.57.

Turning to HDDGYMICCDKCSVWQHIPCMGID, the protein stability index is 2.33.

With HDDGYMICCDKCSVWQHILCMGID, the protein stability index stood at 2.14.

For the variant HDDGYMICCDKCSVWQHIGCMGID, the protein stability index is 2.84.

HDDGYMICCDKCSVWQHIICMGID: the protein stability index was 2.25.

With HDDGYMICCDKCSVWQHITCMGID, the protein stability index stood at 2.33.

As to HDDGYMICCDKCSVWQHIRCMGID, the protein stability index turned out to be 2.43.

Take HDDGYMICCDKCSVWQHINCMGID: the protein stability index was found to be 1.91.

As for HDDGYMICCDKCSVWQHIHCMGID, the protein stability index came out at 2.2.

With HDDGYMICCDKCSVWQHIACMGID, the protein stability index came to 2.04.

As for HDDGYMICCDKCSVNQHIDCMGID, the protein stability index was found to be 3.79.

HDDGYMICCDKCSVCQHIDCMGID: the protein stability index amounted to 3.49.

On to HDDGYMICCDKCSVAQHIDCMGID, for which the protein stability index came to 3.38.

As for HDDGYMICCDKCSVVQHIDCMGID, the protein stability index is 3.59.

For HDDGYMICCDKCSVLQHIDCMGID, the protein stability index turned out to be 3.16.

Take HDDGYMICCDKCSVHQHIDCMGID: the protein stability index turned out to be 3.93.

As to HDDGYMICCDKCSVDQHIDCMGID, the protein stability index worked out at 4.24.

As for HDDGYMICCDKCSVMQHIDCMGID, the protein stability index came to 3.18.

With HDDGYMICCDKCSVPQHIDCMGID, the protein stability index was determined as 3.6.

Regarding HDDGYMICCDKCSVYQHIDCMGID, the protein stability index turned out to be 2.73.

For the variant HDDGYMICCDKCSVKQHIDCMGID, the protein stability index turned out to be 3.61.

As to HDDGYMICCDKCSVTQHIDCMGID, the protein stability index is 3.7.

With HDDGYMICCDKCSVRQHIDCMGID, the protein stability index came out at 3.18.

In the case of HDDGYMICCDKCSVGQHIDCMGID, the protein stability index was found to be 4.18.

For HDDGYMICCDKCSVSQHIDCMGID, the protein stability index was determined as 3.69.

Take HDDGYMICCDKCSVEQHIDCMGID: the protein stability index was 4.13.

As for HDDGYMICCDKCSVQQHIDCMGID, the protein stability index amounted to 3.63.

HDDGYMICCDKCSVIQHIDCMGID: the protein stability index is 2.43.

Turning to HDDGYMICCDKCSVFQHIDCMGID, the protein stability index came to 3.11.

For the variant HDDGYMICCDKCSVWRHIDCMGID, the protein stability index came out at 2.48.

Turning to HDDGYMICCDKCSVWVHIDCMGID, the protein stability index turned out to be 2.82.

Consider HDDGYMICCDKCSVWKHIDCMGID, for which the protein stability index was found to be 2.35.

As for HDDGYMICCDKCSVWYHIDCMGID, the protein stability index stood at 1.07.

For HDDGYMICCDKCSVWHHIDCMGID, the protein stability index was 2.48.

On to HDDGYMICCDKCSVWSHIDCMGID, for which the protein stability index came out at 1.93.

With HDDGYMICCDKCSVWAHIDCMGID, the protein stability index amounted to 1.47.

As to HDDGYMICCDKCSVWMHIDCMGID, the protein stability index came to 2.65.

Consider HDDGYMICCDKCSVWIHIDCMGID, for which the protein stability index is 1.77.

With HDDGYMICCDKCSVWFHIDCMGID, the protein stability index turned out to be 2.02.

Consider HDDGYMICCDKCSVWDHIDCMGID, for which the protein stability index was 2.08.

For HDDGYMICCDKCSVWCHIDCMGID, the protein stability index is 2.4.

As for HDDGYMICCDKCSVWPHIDCMGID, the protein stability index stood at 3.15.

For the variant HDDGYMICCDKCSVWTHIDCMGID, the protein stability index turned out to be 1.69.

As for HDDGYMICCDKCSVWWHIDCMGID, the protein stability index stood at 1.61.

Regarding HDDGYMICCDKCSVWGHIDCMGID, the protein stability index stood at 2.71.

Turning to HDDGYMICCDKCSVWLHIDCMGID, the protein stability index came out at 2.75.

In the case of HDDGYMICCDKCSVWEHIDCMGID, the protein stability index was determined as 2.6.

Turning to HDDGYMICCDKCSVWNHIDCMGID, the protein stability index was 2.42.

Turning to HDDGYMICCDKCSVWQHIDEMGID, the protein stability index amounted to 2.29.

As to HDDGYMICCDKCSVWQHIDHMGID, the protein stability index worked out at 2.12.

As for HDDGYMICCDKCSVWQHIDYMGID, the protein stability index turned out to be 1.68.

As to HDDGYMICCDKCSVWQHIDFMGID, the protein stability index stood at 1.28.

Regarding HDDGYMICCDKCSVWQHIDGMGID, the protein stability index is 2.19.

Turning to HDDGYMICCDKCSVWQHIDVMGID, the protein stability index came to 1.89.

On to HDDGYMICCDKCSVWQHIDAMGID, for which the protein stability index was found to be 2.5.

Take HDDGYMICCDKCSVWQHIDPMGID: the protein stability index was 2.31.

Regarding HDDGYMICCDKCSVWQHIDIMGID, the protein stability index turned out to be 2.08.

Turning to HDDGYMICCDKCSVWQHIDWMGID, the protein stability index turned out to be 2.15.

HDDGYMICCDKCSVWQHIDSMGID: the protein stability index worked out at 1.51.

For the variant HDDGYMICCDKCSVWQHIDTMGID, the protein stability index turned out to be 2.22.

As for HDDGYMICCDKCSVWQHIDNMGID, the protein stability index came to 2.81.

Consider HDDGYMICCDKCSVWQHIDKMGID, for which the protein stability index was 2.06.

Consider HDDGYMICCDKCSVWQHIDDMGID, for which the protein stability index worked out at 2.58.

Turning to HDDGYMICCDKCSVWQHIDLMGID, the protein stability index was 1.86.

Regarding HDDGYMICCDKCSVWQHIDMMGID, the protein stability index is 1.79.

With HDDGYMICCDKCSVWQHIDQMGID, the protein stability index came to 2.02.
